Patent US20170007716A1 (published 2017)

What was measured:
[1] = target: T1, human FAP on HT1080 cells (HT1080-huFAP, stable transfectants) (UniProt Q12884 1-760); test: FACS
huFAP fusion protein [2] = target: T2, huFAP fusion protein (UniProt Q12884 27-760); test: ELISA
huFAP fusion protein [3] = target: T2, huFAP fusion protein; test: ELISA; DAR 3.48
[4] = target: T1, human FAP on HT1080 cells …; test: FACS; DAR 3.48

T1 sequence (Q12884 whole entry, the tested form may be a part): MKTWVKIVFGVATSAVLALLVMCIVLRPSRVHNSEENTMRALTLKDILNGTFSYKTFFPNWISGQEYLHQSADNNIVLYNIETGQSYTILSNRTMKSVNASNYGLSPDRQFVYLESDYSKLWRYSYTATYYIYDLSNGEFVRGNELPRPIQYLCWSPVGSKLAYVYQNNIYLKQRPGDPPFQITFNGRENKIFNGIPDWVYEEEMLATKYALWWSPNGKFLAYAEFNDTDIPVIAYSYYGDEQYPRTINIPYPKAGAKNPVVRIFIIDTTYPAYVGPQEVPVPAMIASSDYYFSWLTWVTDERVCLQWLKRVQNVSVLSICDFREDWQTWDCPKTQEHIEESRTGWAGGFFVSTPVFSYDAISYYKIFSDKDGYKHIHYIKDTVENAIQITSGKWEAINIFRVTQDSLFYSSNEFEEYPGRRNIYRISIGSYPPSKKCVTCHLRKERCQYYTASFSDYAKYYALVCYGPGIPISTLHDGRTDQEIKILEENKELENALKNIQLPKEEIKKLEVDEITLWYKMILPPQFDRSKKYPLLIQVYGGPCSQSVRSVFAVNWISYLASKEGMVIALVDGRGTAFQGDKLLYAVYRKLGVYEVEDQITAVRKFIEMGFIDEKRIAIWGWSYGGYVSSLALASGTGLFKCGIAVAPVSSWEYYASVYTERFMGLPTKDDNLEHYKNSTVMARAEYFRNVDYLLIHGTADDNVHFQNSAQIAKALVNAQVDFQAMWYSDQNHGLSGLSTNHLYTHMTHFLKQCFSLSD
T2 sequence (Q12884 27-760): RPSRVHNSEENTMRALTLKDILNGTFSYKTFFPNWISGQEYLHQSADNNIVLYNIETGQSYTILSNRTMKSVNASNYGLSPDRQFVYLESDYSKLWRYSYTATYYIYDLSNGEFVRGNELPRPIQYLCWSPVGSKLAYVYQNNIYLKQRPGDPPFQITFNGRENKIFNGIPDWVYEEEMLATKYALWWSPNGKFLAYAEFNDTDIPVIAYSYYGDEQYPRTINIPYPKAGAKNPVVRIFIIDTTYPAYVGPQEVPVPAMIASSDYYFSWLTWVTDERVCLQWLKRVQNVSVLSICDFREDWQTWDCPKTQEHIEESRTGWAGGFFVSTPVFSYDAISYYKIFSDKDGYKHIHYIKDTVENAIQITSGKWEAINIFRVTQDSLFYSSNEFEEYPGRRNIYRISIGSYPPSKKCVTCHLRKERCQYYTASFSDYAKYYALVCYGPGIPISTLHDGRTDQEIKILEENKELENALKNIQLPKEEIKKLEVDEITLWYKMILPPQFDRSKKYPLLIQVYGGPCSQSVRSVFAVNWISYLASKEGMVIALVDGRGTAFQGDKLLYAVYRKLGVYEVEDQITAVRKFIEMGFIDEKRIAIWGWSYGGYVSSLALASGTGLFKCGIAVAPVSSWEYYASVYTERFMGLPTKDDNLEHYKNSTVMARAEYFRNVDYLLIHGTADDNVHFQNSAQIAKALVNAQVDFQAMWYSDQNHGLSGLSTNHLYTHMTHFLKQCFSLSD

Binder | EC50 [1] [nM] | EC50 (huFAP fusion protein [2]) [nM] | EC50 (huFAP fusion protein [3]) [nM] | EC50 [4] [nM]
humanized anti-FAP IgG1 hu36 (hu36-IgG1) (antibody, V domains shown) VH: QVQLVQSGAEVKKPGASVKVSCKASGYTFTENIIHWVRQAPGQGLEWMGWFHPGSGSIKYNEKFKDRVTMTADTSTSTVYMELSSLRSEDTAVYYCARHGGTGRGAMDYWGQGTLVTVSS VL: DIQMTQSPSSLSASVGDRVTITCRASKSVSTSAYSYMHWYQQKPGKAPKLLIYLASNLESGVPSRFSGSGSGTDFTLTISSLQPEDFATYYCQHSRELPYTFGQGTKLEIKR | 0.067 | 0.21 |  | 
Anti-FAP hu36:TAM471 ADC (ADC-471) (antibody, V domains shown, cytolysin TAM471 through maleimidocaproyl-vcPABA linker on cysteine residues (not site-specific); cytolysin TAM471 through maleimidocaproyl-vcPABA linker on cysteine residues (not site-specific), DAR 3.48 for the whole antibody) VH: QVQLVQSGAEVKKPGASVKVSCKASGYTFTENIIHWVRQAPGQGLEWMGWFHPGSGSIKYNEKFKDRVTMTADTSTSTVYMELSSLRSEDTAVYYCARHGGTGRGAMDYWGQGTLVTVSS VL: DIQMTQSPSSLSASVGDRVTITCRASKSVSTSAYSYMHWYQQKPGKAPKLLIYLASNLESGVPSRFSGSGSGTDFTLTISSLQPEDFATYYCQHSRELPYTFGQGTKLEIKR |  |  | 0.153 | 0.081
